What all share (assay): ELISA
Experiment [1] concerns the target complement component C4b, human (human) (UniProt P0C0L4).
For experiment [2], the target named is T1, complement component C4b, human (human, UniProt P0C0L4 20-675; P0C0L4 757-1446; P0C0L4 1454-1744).
For experiment [3], the target named is T1, complement component C4b, human. The source holds these as a separate data set.

For orientation: Kd means the concentration at which binding is half-saturated. Low readings indicate higher affinity, high ones lower affinity.

Like-named read-outs stand apart in the source and are kept apart here.

T1 sequence (P0C0L4 20-675, chain 1 of 3): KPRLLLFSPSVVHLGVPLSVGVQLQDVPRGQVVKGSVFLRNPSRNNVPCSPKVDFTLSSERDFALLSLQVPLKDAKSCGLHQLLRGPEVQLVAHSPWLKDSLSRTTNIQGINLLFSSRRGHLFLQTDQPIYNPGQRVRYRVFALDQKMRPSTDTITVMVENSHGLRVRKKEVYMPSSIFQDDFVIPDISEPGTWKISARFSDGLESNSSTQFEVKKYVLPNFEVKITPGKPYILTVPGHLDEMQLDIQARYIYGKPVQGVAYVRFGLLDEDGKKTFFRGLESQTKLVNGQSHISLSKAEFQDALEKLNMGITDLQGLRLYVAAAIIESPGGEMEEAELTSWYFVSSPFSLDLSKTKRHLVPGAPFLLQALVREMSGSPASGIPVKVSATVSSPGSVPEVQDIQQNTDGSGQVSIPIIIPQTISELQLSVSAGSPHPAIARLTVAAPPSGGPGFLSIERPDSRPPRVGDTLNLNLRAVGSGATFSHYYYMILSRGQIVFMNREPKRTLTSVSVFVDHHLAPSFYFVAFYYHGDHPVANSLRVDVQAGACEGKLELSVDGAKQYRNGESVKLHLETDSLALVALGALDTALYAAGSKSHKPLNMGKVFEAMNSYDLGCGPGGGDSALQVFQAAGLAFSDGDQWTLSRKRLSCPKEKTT
T1 sequence (P0C0L4 757-1446, chain 2 of 3): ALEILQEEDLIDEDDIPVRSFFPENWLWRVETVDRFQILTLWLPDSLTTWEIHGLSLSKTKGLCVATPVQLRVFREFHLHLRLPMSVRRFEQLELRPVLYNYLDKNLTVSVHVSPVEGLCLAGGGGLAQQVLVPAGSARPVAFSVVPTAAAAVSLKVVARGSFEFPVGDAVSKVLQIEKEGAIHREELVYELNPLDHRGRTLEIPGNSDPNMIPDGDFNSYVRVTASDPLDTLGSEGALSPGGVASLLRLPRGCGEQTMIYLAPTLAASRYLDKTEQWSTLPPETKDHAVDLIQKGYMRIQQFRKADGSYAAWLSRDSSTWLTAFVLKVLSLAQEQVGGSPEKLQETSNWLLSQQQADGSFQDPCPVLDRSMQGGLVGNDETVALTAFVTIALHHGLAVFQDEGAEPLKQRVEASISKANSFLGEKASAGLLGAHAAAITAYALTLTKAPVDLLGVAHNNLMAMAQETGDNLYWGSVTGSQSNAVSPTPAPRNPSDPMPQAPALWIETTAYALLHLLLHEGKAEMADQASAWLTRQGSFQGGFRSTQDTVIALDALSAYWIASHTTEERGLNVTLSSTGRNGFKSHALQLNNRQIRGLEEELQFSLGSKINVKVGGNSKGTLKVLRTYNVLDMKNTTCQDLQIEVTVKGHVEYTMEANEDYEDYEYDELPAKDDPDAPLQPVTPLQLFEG
T1 sequence (P0C0L4 1454-1744, chain 3 of 3): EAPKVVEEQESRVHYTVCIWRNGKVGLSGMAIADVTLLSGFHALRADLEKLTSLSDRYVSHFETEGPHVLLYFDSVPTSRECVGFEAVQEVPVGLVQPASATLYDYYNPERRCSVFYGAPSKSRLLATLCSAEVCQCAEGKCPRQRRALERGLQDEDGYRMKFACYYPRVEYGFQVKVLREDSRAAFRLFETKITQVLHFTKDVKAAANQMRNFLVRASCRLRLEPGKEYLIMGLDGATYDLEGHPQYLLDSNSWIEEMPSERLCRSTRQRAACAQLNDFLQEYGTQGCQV
complement component C4b, human (human), sequence (P0C0L4 20-675, chain 1 of 3): as the sequence (P0C0L4 20-675, chain 1 of 3) above
complement component C4b, human (human), sequence (P0C0L4 757-1446, chain 2 of 3): as the sequence (P0C0L4 757-1446, chain 2 of 3) above
complement component C4b, human (human), sequence (P0C0L4 1454-1744, chain 3 of 3): as the sequence (P0C0L4 1454-1744, chain 3 of 3) above

“GST-tagged OspC from B. burgdorferi strain N40 clone D10/E9 (natural protein)” returned a dissociation constant Kd in experiment [1] of 233 nM.

B1: GST-OspCB31, GST fused to OspC from B. burgdorferi strain B31-A3 (natural protein)
chain: CNNSGKDGNTSANSADESVKGPNLTEISKKITDSNAVLLAVKEVEALLSSIDEIAAKAIGKKIHQNNGLDTENNHNGSLLAGAYAISTLIKQKLDGLKNEGLKEKIDAAKKCSETFTNKLKEKHTDLGKEGVTDADAKEAILKTNGTKTKGAEELGKLFESVEVLSKAAKEMLANSVKELTSPVVAESPKKP
Regarding B1, the equilibrium dissociation constant (Kd) in experiment [2] is 476 nM; in experiment [3], about 414 nM.

(Values after publication PMC5680108 (Cellular microbiology, 2017).)
